The record followed here is the supplement of paper PMC5998384.

Data set [1] relates to HeLa Kyoto. Kind of data set: solubility in G1/S (NP-40 vs SDS abundance) (log2 ratio); higher = more soluble. To be noted: cell cycle stage: G1/S.
Data set [2] has as its system HeLa Kyoto. Kind of data set: thermal stability score vs G1/S (z-score of summed log2 fold changes over temperatures); higher = more thermally stable than in G1/S.
In data set [3] the test system is HeLa Kyoto. Kind of data set: melting temperature (median over replicates), in situ; higher = more thermally stable.
The test system of data set [4] is HeLa Kyoto. Kind of data set: solubility change mitosis vs G1/S (difference of NP-40 vs SDS log2 ratios) (log2 ratio difference); higher = more soluble in mitosis.
Where [5] appears, read: cell cycle stage: early G1 (4.5 h after nocodazole release).
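Throughout, for melting temperature (median over replicates), in situ: HeLa Kyoto cells synchronized by double thymidine or nocodazole block, proteins quantified by TMT10plex mass spectrometry, three independent biological replicates.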
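Throughout, for solubility change mitosis vs G1/S (difference of NP-40 vs SDS log2 ratios): synchronized HeLa Kyoto cells (double thymidine block for G1/S, nocodazole release for mitosis), protein amounts in NP-40 versus SDS lysates quantified by mass spectrometry, three biological replicates.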
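Throughout, for solubility in G1/S (NP-40 vs SDS abundance): HeLa Kyoto cells arrested at G1/S by double thymidine block, proteins quantified by TMT10plex mass spectrometry in mild NP-40 versus SDS extracts, three biological replicates.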
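Throughout, for thermal stability score vs G1/S (z-score of summed log2 fold changes over temperatures): synchronized HeLa Kyoto cells, proteins quantified by TMT10plex mass spectrometry, three biological replicates, mitosis taken 0.5 h after nocodazole release, G1/S directly after double thymidine block.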

With SLC7A5, the “solubility in G1/S (log2)” value in data set [1] is 0.0865. The thermal stability score is -2.12 in data set [2] (setting [5]) and -3.93 in data set [2] (cell cycle stage: mitosis). The melting temperature in data set [3] (cell cycle stage: G1/S) is 60.4 °C; in data set [3] (cell cycle stage: mitosis) it was 57.8 °C. Besides, the “solubility change mitosis (log2)” value in data set [4] is -0.0332.

In the case of “MDRFVWTSGLLEINETLVIQQRGVRIYDGEEKIKFDAGTLLLSTHRLIWRDQKNHECCMAILLSQIVFIEEQAAGIGKSAKIVVHLHPAPPNKEPGPFQSSKNSYIKLSFKEHGQIEFYRRLSEEMTQRRWENMPVSQSLQTNRGPQPGRIRAVGIVGIERKLEEKRKETDKNISEAFEDLSKLMIKAKEMVELSKSIANKIKDKQGDITEDETIRFKSYLLSMGIANPVTRETYGSGTQYHMQLAKQLAGILQVPLEERGGIMSLTEVYCLVNRARGMELLSPEDLVNACKMLEALKLPLRLRVFDSGVMVIELQSHKEEEMVASALETVSEKGSLTSEEFAKLVGMSVLLAKERLLLAEKMGHLCRDDSVEGLRFYPNLFMTQS [VPS36]”, the “solubility in G1/S (log2)” value in data set [1] is -0.823. Further, the thermal stability score in data set [2] (setting [5]) was 1.41; in data set [2] (cell cycle stage: mitosis), 2.15. Also, the melting temperature in data set [3] (cell cycle stage: G1/S) turned out to be 51.6 °C; in data set [3] (cell cycle stage: mitosis), 51 °C. Also, in data set [4], the “solubility change mitosis (log2)” value is -0.0782.

Regarding “MVGQMYCYPGSHLARALTRALALALVLALLVGPFLSGLAGAIPAPGGRWARDGQVPPASRSRSVLLDVSAGQLLMVDGRHPDAVAWANLTNAIRETGWAFLELGTSGQYNDSLQAYAAGVVEAAVSEELIYMHWMNTVVNYCGPFEYEVGYCERLKSFLEANLEWMQEEMESNPDSPYWHQVRLTLLQLKGLEDSYEGRVSFPAGKFTIKPLGFLLLQLSGDLEDLELALNKTKIKPSLGSGSCSALIKLLPGQSDLLVAHNTWNNYQHMLRVIKKYWLQFREGPWGDYPLVPGNKLVFSSYPGTIFSCDDFYILGSGLVTLETTIGNKNPALWKYVRPRGCVLEWVRNIVANRLASDGATWADIFKRFNSGTYNNQWMIVDYKAFIPGGPSPGSRVLTILEQIPGMVVVADKTSELYQKTYWASYNIPSFETVFNASGLQALVAQYGDWFSYDGSPRAQIFRRNQSLVQDMDSMVRLMRYNDFLHDPLSLCKACNPQPNGENAISARSDLNPANGSYPFQALRQRSHGGIDVKVTSMSLARILSLLAASGPTWDQVPPFQWSTSPFSGLLHMGQPDLWKFAPVKVSWD [PLBD2]”, the “solubility in G1/S (log2)” value in data set [1] was found to be 0.298. The figures for the thermal stability score in data set [2] (setting [5]) and in data set [2] (cell cycle stage: mitosis) were -1.75 and -1.5, respectively. In addition, the melting temperature in data set [3] (cell cycle stage: G1/S) was found to be 56.6 °C; in data set [3] (cell cycle stage: mitosis), 55.9 °C. For the same substance, the “solubility change mitosis (log2)” value in data set [4] is -0.0289.

On to “MACSIVQFCYFQDLQAARDFLFPHLREEILSGALRRDPSKSTDWEDDGWGAWEENEPQEPEEEGNTCKTQKTSWLQDCVLSLSPTNDLMVIAREQKAVFLVPKWKYSDKGKEEMQFAVGWSGSLNVEEGECVTSALCIPLASQKRSSTGRPDWTCIVVGFTSGYVRFYTENGVLLLAQLLNEDPVLQLKCRTYEIPRHPGVTEQNEELSILYPAAIVTIDGFSLFQSLRACRNQVAKAAASGNENIQPPPLAYKKWGLQDIDTIIDHASVGIMTLSPFDQMKTASNIGGFNAAIKNSPPAMSQYITVGSNPFTGFFYALEGSTQPLLSHVALAVASKLTSALFNAASGWLGWKSKHEEEAVQKQKPKVEPATPLAVRFGLPDSRRHGESICLSPCNTLAAVTDDFGRVILLDVARGIAIRMWKGYRDAQIGWIQTVEDLHERVPEKADFSPFGNSQGPSRVAQFLVIYAPRRGILEVWSTQQGPRVGAFNVGKHCRLLYPGYKIMGLNNVTSQSWQPQTYQICLVDPVSGSVKTVNVPFHLALSDKKSERAKDMHLVKKLAALLKTKSPNLDLVETEIKELILDIKYPATKKQALESILASERLPFSCLRNITQTLMDTLKSQELESVDEGLLQFCANKLKLLQLYESVSQLNSLDFHLDTPFSDNDLALLLRLDEKELLKLQALLEKYKQENTRTNVRFSDDKDGVLPVKTFLEYLEYEKDVLNIKKISEEEYVALGSFFFWKCLHGESSTEDMCHTLESAGLSPQLLLSLLLSVWLSKEKDILDKPQSICCLHTMLSLLSKMKVAIDETWDSQSVSPWWQQMRTACIQSENNGAALLSAHVGHSVAAQISNNMTEKKFSQTVLGADSEALTDSWEALSLDTEYWKLLLKQLEDCLILQTLLHSKGNTQTSKVSSLQAEPLPRLSVKKLLEGGKGGIADSVAKWIFKQDFSPEVLKLANEERDAENPDEPKEGVNRSFLEVSEMEMDLGAIPDLLHLAYEQFPCSLELDVLHAHCCWEYVVQWNKDPEEARFFVRSIEHLKQIFNAHVQNGIALMMWNTFLVKRFSAATYLMDKVGKSPKDRLCRRDVGMSDTAMTSFLGSCLDLLQILMEADVSRDEIQVPVLDTEDAWLSVEGPISIVELALEQKHIHYPLVEHHSILCSILYAVMRFSLKTVKPLSLFDSKGKNAFFKDLTSIQLLPSGEMDPNFISVRQQFLLKVVSAAVQAQHSATKVKDPTEEATPTPFGKDQDWPALAVDLAHHLQVSEDVVRRHYVGELYNYGVDHLGEEAILQVHDKEVLASQLLVLTGQRLAHALLHTQTKEGMELLARLPPTLCTWLKAMDPQDLQNTEVPIATTAKLVNKVIELLPEKHGQYGLALHLIEAVEAISLPSL [RAB3GAP2]”, for which the “solubility in G1/S (log2)” value in data set [1] stood at 0.0196. Further, the results for the thermal stability score in data set [2] (setting [5]) and in data set [2] (cell cycle stage: mitosis) were 1.1 and 1.85, respectively. Further, the melting temperature in data set [3] (cell cycle stage: G1/S) amounted to 48.7 °C; in data set [3] (cell cycle stage: mitosis), 49.2 °C. The “solubility change mitosis (log2)” value in data set [4] is -0.143.

As to “MSQQGYVATPPYSQPQPGIGLSPPHYGHYGDPSHTASPTGMMKPAGPLGATATRGMLPPGPPPPGPHQFGQNGAHATGHPPQRFPGPPPVNNVASSHAPYQPSAQSSYPGPISTSSVTQLGSQLSAMQINSYGSGMAPPSQGPPGPLSATSLQTPPRPPQPSILQPGSQVLPPPPTTLNGPGASPLPLPMYRPDGLSGPPPPNAQYQPPPLPGQTLGAGYPPQQANSGPQMAGAQLSYPGGFPGGPAQMAGPPQPQKKLDPDSIPSPIQVIENDRASRGGQVYATNTRGQIPPLVTTDCMIQDQGNASPRFIRCTTYCFPCTSDMAKQAQIPLAAVIKPFATIPSNESPLYLVNHGESGPVRCNRCKAYMCPFMQFIEGGRRYQCGFCNCVNDVPPFYFQHLDHIGRRLDHYEKPELSLGSYEYVATLDYCRKSKPPNPPAFIFMIDVSYSNIKNGLVKLICEELKTMLEKIPKEEQEETSAIRVGFITYNKVLHFFNVKSNLAQPQMMVVTDVGEVFVPLLDGFLVNYQESQSVIHNLLDQIPDMFADSNENETVFAPVIQAGMEALKAADCPGKLFIFHSSLPTAEAPGKLKNRDDKKLVNTDKEKILFQPQTNVYDSLAKDCVAHGCSVTLFLFPSQYVDVASLGLVPQLTGGTLYKYNNFQMHLDRQQFLNDLRNDIEKKIGFDAIMRVRTSTGFRATDFFGGILMNNTTDVEMAAIDCDKAVTVEFKHDDKLSEDSGALIQCAVLYTTISGQRRLRIHNLGLNCSSQLADLYKSCETDALINFFAKSAFKAVLHQPLKVIREILVNQTAHMLACYRKNCASPSAASQLILPDSMKVLPVYMNCLLKNCVLLSRPEISTDERAYQRQLVMTMGVADSQLFFYPQLLPIHTLDVKSTMLPAAVRCSESRLSEEGIFLLANGLHMFLWLGVSSPPELIQGIFNVPSFAHINTDMTLLPEVGNPYSQQLRMIMGIIQQKRPYSMKLTIVKQREQPEMVFRQFLVEDKGLYGGSSYVDFLCCVHKEICQLLN [SEC24D]”, the “solubility in G1/S (log2)” value in data set [1] is 0.11. Besides, the results for the thermal stability score in data set [2] (setting [5]) and in data set [2] (cell cycle stage: mitosis) were 0.419 and 0.688, respectively. Also, the melting temperature in data set [3] (cell cycle stage: G1/S) is 50.8 °C; in data set [3] (cell cycle stage: mitosis), 50.9 °C. For the same substance, the “solubility change mitosis (log2)” value in data set [4] is -0.132.
